Our source for the Kd values is doi:10.64898/2025.12.16.693247 (2025).

Test [1] concerns the target RIPR EGF 9+ (L898 - N1086) (P. falciparum, UniProt O97302 898-1086, N964Q | N1021Q). Kind of test: SPR. For orientation: SPR reads the build-up and loss of mass on a sensor chip optically.
A further test deals with RIPR EGF 7+. Kind of test: SPR.
The target of the next test is RIPR EGF 6+. Kind of test: SPR.
A further test concerns the target RIPR EGF 8+. Kind of test: SPR.
Test [2] has as its target T1, full-length RIPR (RH5-interacting protein) (P. falciparum, UniProt O97302 20-1086). Kind of test: BLI; 2:1 heterogeneous ligand fit, KD1. For orientation: Biolayer interferometry detects binding as a change in optical thickness at a sensor tip.
Test [3] concerns the target T2, RIPR-Tail (D717 - N1086) (P. falciparum, UniProt O97302 717-1086, N964Q | N1021Q). Kind of test: SPR; RIPR-Tail immobilised, steady state.
Test [4] concerns the target T2, RIPR-Tail (D717 - N1086). Kind of test: SPR; PTRAMP-CSS immobilised, steady state.
Test [5] addresses T1, full-length RIPR (RH5-interacting …). Kind of test: BLI; 2:1 heterogeneous ligand fit, KD2 (second site).
Test [6] has as its target mono-biotinylated RIPR-Tail (P. falciparum, UniProt O97302 717-1086, N964Q | N1021Q, biotin on the BAP tag (mono-biotinylated by co-transfected BirA)). Kind of test: SPR.

B1: PTRAMP-CSS heterodimer (complex)
chain 1: CNLKVRNNWEHFLQVYQNNGNFKMEILEPECTIQKNLPSEEEKEEFIDFDRKELLLHDFVVIKNSQFTDEKTLELYLSKEENNKSYLMLTFYLGDLKLMIGHNSPYEISLILNVATVNKNMSNCKNNSYNIVLLKTTDVFNTSDLEILEGPIQFSLGKSSGAFRINVTNFFLNNTWKAFTKDKISFLIKPEENCYTILENKINKPQLLIEKKTTFYSEWGEWSNCSMDCDHPDNVQIRERECIHPSGDCFKGDLKESRPCIIPLPPCNELFSHKDNST
chain 2: QDEKSVKNICVCDFTDKLNFLPLEKTKILCELKPQYGEDIKIIANKEYEINCMNNSKVFCPLKDTFINNTNIKLYSPKLHFEIKDITHKGKNAALYYLKIDEEASDIFFSCSIKPKQVSGLLEGEVRVNLKKHINEEYSIFNEEEDVHVCDFSKGNLDITPSAGFYLKNSRNVSCIYRVIPNKLFLIKLPKLDIVTEKLLPSIVNCLSEFSFINFTLKHVQEGDNYISFNVIFGEFKKHFNLTCSLDLSDFQQEPCNLGKTANITFIFSK
On to B1, for which the dissociation constant Kd in [1] was found to be 6.44 µM; with RIPR EGF 7+, 2.35 µM; with RIPR EGF 6+, 5.15 µM; with RIPR EGF 8+ it was 3.55 µM; in [2] it was 0.00113 µM; with RIPR-Tail (D717 - N1086) [3] it was 5.69 µM. The Kd with RIPR-Tail (D717 - N1086) [4] is 6.23 µM; in test [5], 0.176 µM.

B2: CSS (cysteine-rich small secreted protein), residues Q21-K290 (natural protein)
chain: QDEKSVKNICVCDFTDKLNFLPLEKTKILCELKPQYGEDIKIIANKEYEINCMNNSKVFCPLKDTFINNTNIKLYSPKLHFEIKDITHKGKNAALYYLKIDEEASDIFFSCSIKPKQVSGLLEGEVRVNLKKHINEEYSIFNEEEDVHVCDFSKGNLDITPSAGFYLKNSRNVSCIYRVIPNKLFLIKLPKLDIVTEKLLPSIVNCLSEFSFINFTLKHVQEGDNYISFNVIFGEFKKHFNLTCSLDLSDFQQEPCNLGKTANITFIFSK
With B2, the equilibrium dissociation constant (Kd) in [6] was 0.95 µM.

A word on the Kd: it is the concentration at which binding is half-saturated. A lower Kd goes with tighter binding.
